Data on 19 sequences can be found in the DeepSol protein solubility set.

A short description of this series: soluble on expression in E. coli; label from the status in PepcDB or PDB records.
For “MNLVHTPNANRLHIALFGKRNSGKSSLINALTGQDTALVSDTPGTTTDSVQKAMEIHGIGPCLFIDTPGFDDEGELGNRRIERTWKAVEKTDIALLLCAGGGSAEETGEPDFTEELHWLEQLKAKNIPTILLINKADIRKNTASLAIRIKETFGSQPIPVSAKEKTGVELIRQAILEKLPEDFDQQSITGSLVTEGDLVLLVMPQDIQAPKGRLILPQVQTMRELLDKKCLIMSCTTDKLQETLQALSRPPKLIITDSQVFKTVYEQKPEESRLTSFSVLFAGYKGDIRYYVKSASAIGSLTESSRVLIAEACTHAPLSEDIGRVKLPHLLRKRIGEKLSIDIVAGTDFPQDLTPYSLVIHCGACMFNRKYVLSRIERARLQNVPMTNYGVAIAFLNGILNQIEYLEHHHHHH”, the “soluble on expression in E. coli” value was “not soluble”.
Then “MNLYSLLLSLITGCFLLAQGGTSFSSPVETEKSAVTAQSILEKADEIRFPQDSFQVNVAIRTAAPDHAEDLYRYQVLSKGNENSIVMITEPASERGQAILMKGRDLWVFMPSVSQPIRLSLSQRLTGQVANGDIARANFTGDYHPQLLRNESIDDEDYYVLELTGIDRSVTYQKVLLWVNQSNFRPYKAEFYSVSGRLLKTSRYENFDNILGEMRPTRIIMEDALKSGEVSVLDYSDMKLRDLPDKIFTKDYLKRLE”, with “not soluble”; and “MNMEEITPVDILLQLVKMGKVDPWNIDIVDLTEKYIKMLREMQELDLRISARAILAASILVRMKSEALLRGEEEENKRGEEEKIKVDVDPLVPPLRRVERYYTLDDLIEALMDALEEAEKRKPKKKKKVEIDEEIFVVDDFRVDIEKYVEELYKVVKKIYEKTKTPIKFWDLVPDVEPKIIARTFLYLLFLENMGRVEMIQEEPFGEILVVPV”, with “soluble”.
Regarding “MNMPMTERIRAGKLFTDMCEGLPEKRLRGKTLMYEFNHSHPSEVEKRESLIKEMFATVGENAWVEPPVYFSYGSNIHIGRNFYANFNLTIVDDYTVTIGDNVLIAPNVTLSVTGHPVHHELRKNGEMYSFPITIGNNVWIGSHVVINPGVTIGDNSVIGAGSIVTKDIPPNVVAAGVPCRVIREINDRDKHYYFKDYKVESSV”, the “soluble on expression in E. coli” value was “soluble”.
As to “MNNIPVEIRLLKNRTVLVLTYGDEPKNLPAEFLRVYSPSAEVRGHGVGQDVLQTGKADVQIADLQPVGQYALKISFSDGHDSGLYDWAYLHRLAYGYDAMWQEYLDKLAAAGASRFEEK”, the “soluble on expression in E. coli” value is given as “not soluble”.
The entry for “MNNKKPVCAEGMVKMEKKSLLILGTASHVGKSSVVTAICRILSRSYRVAPFKAQNMSLNSWITKDGKEIGIAQAIQAKAAGTEPTADMNPVLLKPKGDCVSQVVLLGEPYADKSAGQYYDSIEEMHAVLKGALERLWKEHDIIVMEGAGGAAEINLYERDIVNVGTARLTKAPIILVGDIERGGVFASLYGTIALLPEDVRKNVKGFIINKFRGDIEILRPGLKQLEDKTGIPVLGVLPHFKLRIPSEDSVSLGDKEDSKAEKEIEVAVIRLPRISNFTDFEPLEGLVKVRYVDINEELGNPDAIMIPGTKNTVNDLLDLRASGMDKKIQAFKGKVPIFGICGGYQMLGRTIFDSGVENGVEAEFEGLGLLDIGTRFGEYKKRTVQVTKKVNGYGPILRPIDGEEIKGYEIHMGVTDSNRTVFGDDGAIDEDGFVIGTYLHGLFDNRNIRNALVRYLYEKKGLEYEPDEAISENDAYEELANVVEQNIDMEKLFEIAGV” is “not soluble”; for “MNNKLKTQAVEQLFQAILSLKDLDEAYDFFEDVCTINEILSLSQRFEVAKMLREHRTYLDIAEKTGASTATISRVNRSLNYGNDGYDRVFERLGMLEKESEDNK” it is “soluble”.
Then “MNNKTEQGNDAVSGQPSIKGQPVLGKDDAPVTVVEFGDYKCPSCKVFNSDIFPKIQKDFIDKGDVKFSFVNVMFHGKGSRLAALASEEVWKEDPDSFWDFHEKLFEKQPDTEQEWVTPGLLGDLAKSTTKIKPETLKENLDKETFASQVEKDSDLNQKMNIQATPTIYVNDKVIKNFADYDEIKETIEKELKGKLEHHHHHH”, with “soluble”; and “MNNLIRLRDGVAEVCRDDPWQLLRELPDALPPGPLLLPLAAWLERRGEAGAAAPWLAPDDEVEALLPHFAELPLIAVDFPSFRDGRGYSLAYLLRVRLGWSGELRAVGDVLRDQLSHMRQCGFDAFAVREDKNVEDALKGLAGLSVLYGRSAIEPRPLFRRR”, with “not soluble”; and “MNNNLQRDAIAAAIDVLNEERVIAYPTEAVFGVGCDPDSETAVMRLLELKQRPVDKGLILIAANYEQLKPYIDDTMLTDVQRETIFSRWPGPVTFVFPAPATTPRWLTGRFDSLAVRVTDHPLVVALCQAYGKPLVSTSANLSGLPPCRTVDEVRAQFGAAFPVVPGETGGRLNPSEIRDALTGELFRQG”, with “soluble”.
The entry for “MNNNTLSDDNLYNIENWGEGYFRINSKGNIEISKKPGKPGVELQTIVDAADRAGLHLPLLIRCSDILHDRVHRIYQAFTQAREDTCYAGNYQLVYPIKVNQEQSVVRELLKSPDNQIGLEAGSKPELMAVIGMLGDHQSTIVCNGYKDTSYIRTALIAQQMGHKVFIVIEKKSELDIILKESARLQIKPTLGVRIRLVSKSAGKWENTGGVKSKFGLNAKQVLELILQLKANDMLDCLQLMHCHLGSQIANIHDIRHCMQEVARYYIELRQLNAPIGTIDVGGGLSVDYEGTRSNKGCSMNYSLVEYATHIMLALKHLCQEAEISEPDLISESGRALTAHHAVLISNITDVEIINKAPVLPEISEDDSHVIRDIYDTYQAITDSSPTEIYNYAAHSLNEAHSLFKHGVISLQEKAKVEAFYTNICMEIKDKLDEENPSEKALLMRINECMAAKIFCNISFFQSIPDAWAIGQIFPVAPISQLNRTLSMHSILQDLTCDSDGTIKQYPGSSCVTTTLMLPSYDINNPYNIGFFLVGAYQEILGNLHNLFGDTNSLDVKLSDDGQFELDDLVSGDTVTNVLNLAHFDTKKLIQSYEKQLIKSELPKEKALSYLNELRSIFSQLTYLDGNIAQLEHHHHHH” is “soluble”.
Regarding “MNNREKEILAILRRNPLIQQNEIADMLQISRSRVAAHIMDLMRKGRIKGKGYILTEQEYCVVVGTINMDIRGMADIRYPQSASHPGTIHCSAGGVGRNIAHNLALLGRDVHLLSVIGDDFYGEMLLEETRRAGVNVSGCVRLHGQSTSTYLAIANRDDQTVLAINDTHLLEQLTPQLLNGSRDLLRHAGVVLADCNLTAEALEWVFTLADEIPVFVDTVSEFKAGKIKHWLAHIHTLKPTLPELEILWGQAITSDADRNTAVNALHQQGVQQLFVYLPDESVYCSEKDGEQFLLTAPAHTTVDSFGADDGFMAGLVYSFLEGYSFRDSARFAVACAAISRASGSLNNPTLSADNALSLVPMV”, the “soluble on expression in E. coli” value was “not soluble”.
The entry for “MNNWKLILPLMMSGSLIACTSTQTTTEPVEPETPKVEQPVTVEPEVKPEVEPKPEVKPKPETKPEKKPEPKPEKPVKVQKTPDGMLILGSEEWVYVPAIDQTFKARVDTGATTSSISATEIVPFERDGKDWVQFKIDINGKTSKEFKVPVERWAKVKQSSSDEVDKRAVVVAYIQVGDYKEKTEFTLADRDHMKFPILLGRSFFRDIAVVDVSKKYIQDKPTKSTKK” is “not soluble”; for “MNQRLVYVVSDSGGETAELVVKAAASQFHASPIQVKRVPYVEDKTTLAEVVALAKMNRAIIAFTLVVPEMREFLLAEAAREGVVAYDIIGPLIEKMSHLFQLTPRYEPGQVRVLDEDYFKKIEAIEFAVKYDDGRDPRGILRADIVLIGVSRTSKTPLSQYLAHKRLKVANVPIVPEVEPPEQLFRVGPGKCFGLKISPDKLLSIRRERLKSLGLNDQAIYANMDRIKEELAYFDEVVKKIGCDVIDVTNKAVEETASIIMKKLKR” it is “not soluble”.
Then “MNQSADAKPPKPDGRVTRSVTVRKLGPGANKEKQESDNSQKKKTVNAAAQKADTSSKRNSGNPQKPKKPKHEAIKVSTRRLSASSKPPPPAPQNVPKMNSFVGNGNTRMIMVQTTPQAKKLEAEMKLRMQNKGESPEASLLVLESRTPEPTVQQVLEELQNDVVNPKSSTTPEGYSFELRNLKTPEIPAMPTPLACSPAAARNSPVVKKIQNHVPNVTLVPSEPREPSLRKLHLGTLKLKFLAFPLTTGFKKLQKLQDPLARIKLATEKLKERRAQLDTQKKHTMFLPEAFIGPHFNETIASGFYALFNASHFQVHYNSEGKRLGSGTMCVLKNQMNGARDWFAGNTWRAVKMMYMRTRDAEKHKNSEVKLFVEKLPDWSTEQLEEKLRNEFKLSDFQLLYDYKGNNLRSAIVLLKYPDAINLCNSIRSNPTVFGKEWHPRVFEVLDVAVQPPIDK”, with “not soluble”; and “MNRDLPVLRALRSLPDKVVGEALVSNDAISMRYDVDASTGKVVRPSHDLYGQSISGKVLIFKNTKGGVATGWALLNLKSRGTAPIALVCDTTNPVFVQGAALAGLPIMDGFRESPRSAVRTGDVVELDGISGELKVLRRGAGGQLEHHHHHH”, with “not soluble”; and “MNREFVEAMQHLALERGVSVEEILKAFKRALRKAYIKRQKGYKKEEIDQGKGPEVDVYIDPNSGRIEMVKVRRVVEKVEDPDKEIALAEALQYDPEVQVGDEMEFPINPEELSRMAIQDLRQILTQRLKESERNRIYNEYKDKEGQVLTGVVTRVDNRGNVFVELGRGEAYLPRSEQIPTEKYHPGQRIKVYLKKVDKSAKGPSLLVSRAHEKLLEHLLKQEVPEIAEGIVEIKAIAREPGRRSKVAVTSHNPNVDPIGACIGHKGQRIQAVSAELGREKVDIILWSKDPKEFIRNALSPAQVGSIELDPEAKKARVKVTKDQHSLAIGTGGQNVRLASKLTGYDIHFEEAEISDLDEALRRAAEEEAEARERKAREEFEKLFRDLG”, with “soluble”.
Then “MNRKPRTRSTIVPGRKMITEIVALREAGLDDTRPSYLEEPTVIVDESMMNDSANLEEREWRKQGLSEKQMFAILEKRKQTQLNNARKRLEKEMYGAKTFKELIACREYSECESDSENTVNQNVRSASVFAIPALPKHISEKSMMGSPIANSRGSGKAGLSCSTPKSSSDTSMRSLRSLDISHVVNTDRLDAERVTVHTKSVVIPTILEERESTLQKTLTIEKNHSSQLQKTFTVAEDAPEELQKTVTIEKNQSSEMQRTFTVAKDASKEQSQLQRTVTIEKNQSSQLQGNFTVAKDAPEELQKTVTIEKNQSSEMQGTVTVAKDAEHSSLQKTFTKPTEKDESSLQRTFNVANRDENNDSTLQKTFIIEERDAYEQGTTSVGVKPPVLAQNTMEGGEKRRTSKVTSDERERRNASISNPLHNSMLEKEEIQSPGANFFKHPRKKIRPVVQTPPRIKATSRLSTESNKERTIEMESVAEERTMEADSIGSSYISPTFNASRVSPVPEVPEKVEPMHVSKAATPKSIRHTDNSIRNIGPTNNVECARAALLSTPTRMDIVDSVNRVTPARRYEQPTFASLVKRMNMKDANRLLEETSRKNTPAKTTATTSSAAVRMVLEDDEEDQATEVIEKRSENGGVIVDGEDEAADSSNRSLNIELNALTVNEEPAHDISAIDFPEDDTNEMRSSSDEEEMEARPDPRKKSSRRLGLLSDSIALGLASSSRRRPNDTFVDETWYPEPNSKGNRRPRTHRGMKLKEHQLMKPEDAPDGVRRSTRVRVKPVRSWLGEQPVYVNSPISGCKRLTGVTAVVIKDPRLCYYRTADVRTATERELKDKANKRALAQEKKQQRQNARSGRRHDSDDDEEDDM”, with “not soluble”.
For the sequence “MNRLHGQQVKIGYGDNTIINKLDVEIPDGKVTSIIGPNGCGKSTLLKALSRLLAVKEGEVFLDGENIHTQSTKEIAKKIAILPQSPEVADGLTVGELVSYGRFPHQKGFGRLTAEDKKEIDWAMEVTGTDTFRHRSINDLSGGQRQRVWIAMALAQRTDIIFLDEPTTYLDICHQLEILELVQKLNQEQGCTIVMVLHDINQAIRFSDHLIAMKEGDIIATGSTEDVLTQEILEKVFNIDVVLSKDPKTGKPLLVTYDLCRRAYS”, the “soluble on expression in E. coli” value was “not soluble”.
